Test results: patent US20240368617A1, “NPR1 VARIANT TO ENHANCE PLANT RESISTANCE TO BIOTIC AND ABIOTIC STRESSES AND METHOD THEREOF” (Duke University, published 2024)
Where a chain is given by its changes, count along the chain named. Names may count otherwise.

Assays:
npr1(A151P/D152R)-HA = target: T1, npr1(A151P/D152R)-HA (Arabidopsis thaliana, UniProt P93002 1-593); test: co-immunoprecipitation after transient co-expression in N. benthamiana
T1 construct: not shown: C-terminal HA tag from vector pLN462
T1 sequence: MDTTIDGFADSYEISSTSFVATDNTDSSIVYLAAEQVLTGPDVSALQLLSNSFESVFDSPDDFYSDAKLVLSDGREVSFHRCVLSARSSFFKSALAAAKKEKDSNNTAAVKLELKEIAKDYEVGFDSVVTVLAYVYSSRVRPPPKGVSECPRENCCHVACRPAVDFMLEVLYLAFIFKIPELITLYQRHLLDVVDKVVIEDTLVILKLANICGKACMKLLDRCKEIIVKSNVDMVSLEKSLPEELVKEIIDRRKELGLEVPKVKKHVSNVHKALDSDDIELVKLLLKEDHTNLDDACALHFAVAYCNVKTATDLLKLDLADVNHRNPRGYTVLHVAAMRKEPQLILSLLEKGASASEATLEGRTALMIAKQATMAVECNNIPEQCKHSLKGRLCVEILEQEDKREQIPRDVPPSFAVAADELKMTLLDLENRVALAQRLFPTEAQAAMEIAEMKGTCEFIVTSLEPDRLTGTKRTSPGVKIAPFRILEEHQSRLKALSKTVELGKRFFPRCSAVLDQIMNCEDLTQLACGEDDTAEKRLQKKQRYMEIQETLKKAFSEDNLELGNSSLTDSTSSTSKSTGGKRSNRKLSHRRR
Method: (§1) For plant transformations, the Agrobacterium tumefaciens strain GV3101 was transformed with plant binary vectors carrying the indicated transgenes. For stable expression in Arabidopsis, a floral dipping method was used. For transient expression in N. benthamiana, the Agrobacterium carrying the indicated construct was cultured over-night at 28° C. in LB broth medium supplemented with appropriate antibiotics: spectinomycin (100 μg ml-1), kanamycin (50 μg ml-1), gentamycin (50 μg ml-1) and rifampicin (25 μg ml-1). The obtained culture was re-inoculated at 1:10 into fresh growth medium with antibiotics and grown for another 4 h. Cells were then centrifuged at 1,600g for 10 min, and inoculum was prepared by resuspending cells to an OD600 of 1 in double-distilled water containing 200 μM acetosyringone (Sigma-Aldrich). The co-expression assays were per-formed with a 1:1 mixture of Agrobacteria inoculums. The inoculum was pressure-infiltrated into N. benthamiana leaves at the abaxial side using 1 ml syringe without the needle.
(§2) Recombinant protein analysis, co-immunoprecipitation and cell-free oligomerization were performed using total protein extracts from the transient expression assay in N. benthamiana as described previously. Interaction analysis of NPR1-HA with TGA3-mRFP or NPR1-GFP (self-interaction), was performed in vivo by transiently co-expressing the two proteins in N. benthamiana followed by treatment with water (mock) or 1 mM SA for 5 h. Total protein was extracted and used for co-immunoprecipitation with anti-RFP or anti-HA beads, respectively. In the NPR1-HA/TGA3-mRFP interaction experiments the npr1-1-HA was used as a negative control. Interaction between GST-NPR1 and Myc-CUL3A was performed by co-expression in E. coli as described. For western blotting under reducing conditions, the SDS sample buffer was added to the protein extracts from a 4× stock solution supplemented with 50 mM DTT and 715 mM B-mercaptoethanol. For western blotting under non-reducing conditions, a DDT-and B-mercaptoethanol-free SDS sample buffer was used. […]

npr1(L284D)-HA = target: T2, npr1(L284D)-HA (Arabidopsis thaliana, UniProt P93002 1-593); test: as above
T2 construct: not shown: C-terminal HA tag from vector pLN462
T2 sequence: T1 sequence with P151A, R152D, L284D
Method: as §1, §2

npr1(L281D)-HA = target: T3, npr1(L281D)-HA (Arabidopsis thaliana, UniProt P93002 1-593); test: as above
T3 construct: not shown: C-terminal HA tag from vector pLN462
T3 sequence: T1 sequence with P151A, R152D, L281D
Method: as §1, §2

npr1(dim)-HA = target: T4, npr1(dim)-HA (Arabidopsis thaliana, UniProt P93002 1-593); test: co-immunoprecipitation of GFP- and HA-fused proteins with anti-HA beads, N. benthamiana, with and without SA
T4 construct: also called L49D/F53D/V56D/V83K; not shown: C-terminal HA tag from vector pLN462
T4 chain: T1 sequence with L49D, F53D, V56D, V83K, P151A, R152D
Method: as §1
Recombinant protein analysis, co-immunoprecipitation and cell-free oligomerization were performed using total protein extracts from the transient expression assay in N. benthamiana as described previously. […]

[1] = target: the molecule itself; test: size-exclusion chromatography (later elution than WT) and low-resolution cryo-EM (single-wing shape)

B1: TGA3-mRFP (other, Arabidopsis thaliana, UniProt Q39234 1-384, looked up)
chain: MEMMSSSSSTTQVVSFRDMGMYEPFQQLSGWESPFKSDINNITSNQNNNQSSSTTLEVDARPEADDNNRVNYTSVYNNSLEAEPSSNNDQDEDRINDKMKRRLAQNREAARKSRLRKKAHVQQLEESRLKLSQLEQELVRARQQGLCVRNSSDTSYLGPAGNMNSGIAAFEMEYTHWLEEQNRRVSEIRTALQAHIGDIELKMLVDSCLNHYANLFRMKADAAKADVFFLMSGMWRTSTERFFQWIGGFRPSELLNVVMPYVEPLTDQQLLEVRNLQQSSQQAEEALSQGLDKLQQGLVESIAIQIKVVESVNHGAPMASAMENLQALESFVNQADHLRQQTLQQMSKILTTRQAARGLLALGEYFHRLRALSSLWAARPREHT
notes: Transiently co-expressed in N. benthamiana; pulled down with anti-RFP beads; also called AtTGA3; AT1G22070; not shown: C-terminal mRFP from vector pSITE-4NB
npr1(A151P/D152R)-HA
  binding result: no binding
npr1(L284D)-HA
  binding result: no binding
npr1(L281D)-HA
  binding result: no binding

B2: npr1(dim)-GFP (other)
chain: T1 sequence with L49D, F53D, V56D, V83K, P151A, R152D
notes: also called L49D/F53D/V56D/V83K; not shown: C-terminal eGFP from vector pK7FWG2
npr1(dim)-HA
  binding result: no binding

B3: npr1(dim) mutant (L49D/F53D/V56D/V83K) with C-terminal Strep tag, expressed in insect cells (other)
chain: T1 sequence with L49D, F53D, V56D, V83K, P151A, R152D
notes: Full-length; His10-GST removed; Monomeric by size exclusion and low-resolution cryo-EM; not shown: C-terminal Strep tag
[1]
  binding result: no binding
